Measured values published in the PETadex activity labels (doi:10.1021/acsomega.4c04843).

B1: unnamed (protein)
chain: MMGYITAHDGTNLYVEDVGFGEPIVFLHGWPANNNMFEYQKNALVEAGYRYIGIDFRGYGKSDAPATGYDYETMASDVHMVVYGLGLKNFTLVGFSMGGAIAVRYAADYKEDGLNKLVLAGAAAPIFTQRADYPYGMTTDEVDALIDDTRADRPKMLEGFGEIFFEKEHSKPMQNWFHHLALVASSHGTIASAQALRDEDLRDALPKIDVETLIIHGVHDKICPFAFAEQMEQGISNARIERFEESGHGTVLDEREKFNDTLLQFVQ
B2: unnamed (protein)
chain: MPPFRSSRWLSGGHVQTLYSPLWRASPQLQRRRERMTLQDGDFIDLDWYGPEGEATNCVLLLHGLTGSSASLYILGQQQALAARGWQSAAVNWRGCSGEPNHRARGYHSGVSEDLADVVKQLTLRYPHKLFAAIGYSLGGNVLLKYLGEKGSNTPLKAAVAVSVPFRLDHCAERINKGFSRVYQARFLRGLRRYVEHKRQAFLRQGRRGELARLAALETLKGMKTFWDFDGRVTAPLHGFESADDYYRRCSSAFFVEQIRIPTLIVHSLDDPFIYPQSVPKAEVLPSCVTLELHASGGHVGFIEGPPWRPRYYLEHRLPNWLQSQLCSQGKTHNTSALLSN
B3: unnamed (protein)
chain: MVPTTVDFDTLCPEPIFQDRWVATPRGRVFTRTWETSHLRSDVPIVLLHDSLGCVDLWRSFPAALCAATQRRVIAYDRLGFGRSDACLTPPLLSFIDDEPSTSFAALQSAFQLTHFIALGHSVGGCMAVHCAGQYVEQCQGLITIAAQAVNEPRTQQGIEEARAAFQMPEQFAKLEKYHGNKARWVLNGWIDTWLHPAFEHWSLTPALQHVHCPTLVLHGENDEYGSHRQPEGIARHTRGPAHTEILPGVGHVPHREVEAVVVHYVSEFIERLTP
B4: unnamed (protein)
chain: MFRFHIVSALLTLFIAVPSQAHDVGQREIKISGAEPGRNLEVSVWYPAAIDGKATLIGDNIIFKGAPAVIDATPEKGSFPLLVMSHGSGGRAQGMAWLATELVKAGIIVAAPNHPGTTSGDSTPQDTPKIWQRTGDLSAVIDTMTTDPAWSGIIDKNKISVLGFSLGGAAAMEIAGARANLEAYARYCDTYGKWDCAWYAGGIGYRDDKQIKVDKVDLRSVDKSRFEQSNLDRRIASAIMIDPGLAQAYDAQSLASISIPMSFINLGEVETIPTGVVADKLASITPQGTYVTVAGATHWSFLPECKKGAADRLKSAGEVDPICSDDARRPRADIHADITKLVLKALQSMPKT
B5: unnamed (protein)
chain: MFRFHIVSALLTLFIAVPSQAHDVGQREIKISGAEPGRNLEVSVWYPAAIDGKATLIGDNIIFKGAPAVIDATPEKGSFPLLVMSHGSGGRAQGMAWLATELVKAGIIVAAPNHPGTTSGDSTPQDTPKIWQRTGDLSAVIDTMTTDPAWSGIIDKNKISVLGFSMGGAAAMEIAGARANLEAYARYCDTYGKWDCAWYAGGIGYRDDKQIKVDKVDLRSVDKSRFEQSNLDRRIASAIMIDPGLAQAYDAQSLASISIPMSFINLGEVETIPTGVVADKLASITPQGTYVTVDGATHFSFLPECKKGAADRLKSAGEVDPICSDDARRPRADIHADITKLVLKALQSMPKT
B6: unnamed (protein)
chain: MFRFHIVSALLTLFIAVPSQAHDVGQREIKISGAEPGRNLEVSVWYPAAIDGKATLIGDNIIFKGAPAVIDATPEKGSFPLLVMSHGSGGRAQGMAWLATELVKAGIIVAAPNHPGTTSGDSTPQDTPKIWQRTGDLSAVIDTMTTDPAWSGIIDKNKISVLGFALGGAAAMEIAGARANLEAYARYCDTYGKWDCAWYAGGIGYRDDKQIKVDKVDLRSVDKSRFEQSNLDRRIASAIMIDPGLAQAYDAQSLASISIPMSFINLGEVETIPTGVVADKLASITPQGTYVTVAGATHFSFLPECKKGAADRLKSAGEVDPICSDDARRPRADIHADITKLVLKALQSMPKT
B7: unnamed (protein)
chain: MFRFHIVSALLTLFIAVPSQAHDVGQREIKISGAEPGRNLEVSVWYPAAIDGKATLIGDNIIFKGAPAVIDATPEKGSFPLLVMSHGSGGRAQGMAWLATELVKAGIIVAAPNHPGTTSGDSTPQDTPKIWQRTGDLSAVIDTMTTDPAWSGIIDKNKISVLGFSMGGAAAMEIAGARANLEAYARYCDTYGKWDCAWYAGGIGYRDDKQIKVDKVDLRSVDKSRFEQSNLDRRIASAIMIDPGLAQAYDAQSLASISIPMSFINLGEVETIPTGVVADKLASITPQGTYVTVAGATHWSFLPECKKGAADRLKSAGEVDPICSDDARRPRADIHADITKLVLKALQSMPKT
B8: unnamed (protein)
chain: MFRFHIVSALLTLFIAVPSQAHDVGQREIKISGAEPGRNLEVSVWYPAAIDGKATLIGDNIIFKGAPAVIDATPEKGSFPLLVMSHGSGGRAQGMAWLATELVKAGIIVAAPNHPGTTSGDSTPQDTPKIWQRTGDLSAVIDTMTTDPAWSGIIDKNKISVLGHSLGGAAAMEIAGARANLEAYARYCDTYGKWDCAWYAGGIGYRDDKQIKVDKVDLRSVDKSRFEQSNLDRRIASAIMIDPGLAQAYDAQSLASISIPMSFINLGEVETIPTGVVADKLASITPQGTYVTVAGATHFSFLPECKKGAADRLKSAGEVDPICSDDARRPRADIHADITKLVLKALQSMPKT
B9: unnamed (protein)
chain: MFRFHIVSALLTLFIAVPSQAHDVGQREIKISGAEPGRNLEVSVWYPAAIDGKATLIGDNIIFKGAPAVIDATPEKGSFPLLVMSHGSGGRAQGMAWLATELVKAGIIVAAPNHPGTTSGDSTPQDTPKIWQRTGDLSAVIDTMTTDPAWSGIIDKNKISVLGFSMGGAAAMEIAGARANLEAYARYCDTYGKWDCAWYAGGIGYRDDKQIKVDKVDLRSVDKSRFEQSNLDRRIASAIMIDPGLAQAYDAQSLASISIPMSFINLGEVETIPTGVVADKLASITPQGTYVTVAGATHISFLPECKKGAADRLKSAGEVDPICSDDARRPRADIHADITKLVLKALQSMPKT
B10: unnamed (protein)
chain: MFRFHIVSALLTLFIAVPSQAHDVGQREIKISGAEPGRNLEVSVWYPAAIDGKATLIGDNIIFKGAPAVIDATPEKGSFPLLVMSHGSGGRAQGMAWLATELVKAGIIVAAPNHPGTTSGDSTPQDTPKIWQRTGDLSAVIDTMTTDPAWSGIIDKNKISVLGFSLGGAAAMEIAGARANLEAYARYCDTYGKWDCAWYAGGIGYRDDKQIKVDKVDLRSVDKSRFEQSNLDRRIASAIMIDPGLAQAYDAQSLASISIPMSFINLGEVETIPTGVVADKLASITPQGTYVTVAGATHFSFLPECKKGAADRLKSAGEVDPICSDDARRPRADIHADITKLVLKALQSMPKT
B11: unnamed (protein)
chain: MFRFHIVSALLTLFIAVPSQAHDVGQREIKISGAEPGRNLEVSVWYPAAIDGKATLIGDNIIFKGAPAVIDATPEKGSFPLLVMSHGSGGRAQGMAWLATELVKAGIIVAAPNHPGTTSGDSTPQDTPKIWQRTGDLSAVIDTMTTDPAWSGIIDKNKISVLGFSLGGAAAMEIAGARANLEAYARYCDTYGKWDCAWYAGGIGYRDDKQIKVDKVDLRSVDKSRFEQSNLDRRIASAIMIDPGLAQAYDAQSLASISIPMSFINLGEVETIPTGVVADKLASITPQGTYVTVAGATAFSFLPECKKGAADRLKSAGEVDPICSDDARRPRADIHADITKLVLKALQSMPKT
B12: unnamed (protein)
chain: MRKETAWFVGGAAIAAATAAGASVWSQYGSLVRWQEPELPIQPTTRRRHTYTYKIVHDRPLQFDLYLPPGEGPFPVAVYAHGGAFVRGNRSMVTLFHPLLDHFLGKGIAVVSIDYRLFEDGVYFPDNIFDVSDALCYLKQHESLLTLDTSQLLVWGDSAGAALMLATALDRYRQFAGDLGDDLPTIKGVIALYPPTNFLLFKFIQTWLAHLKFYEGSREEWRELMVKCSPVSHLYADAPPILLLHGKKDPIVPFGQALHFVEHASDVGANVQLISFPNGTHSLASFLQSDNPIKEEQLMARINRFIEECLG
B13: unnamed (protein)
chain: MSNPYQRGPNPTRSALTADGPFSVATYTVSRLSVSGFGGGVIYYPTGTSLTFGGIAMSPGYTADASSLAWLGRRLASHGFVVLVINTNSRFDGPDSRASQLSAALNYLRTSSPSAVRARLDANRLAVAGHSMGGGGTLRIAEQNPSLKAAVPLTPWHTDKTFNTSVPVLIVGAEADTVAPVSQHAIPFYQNLPSTTPKVYVELCNASHIAPNSNNAAISVYTISWMKLWVDNDTRYRQFLCNVNDPALCDFRTNNRHCQLEHHHHHH

Each protein was assayed on pNPB (assay: Proxy for plastic degradation [p-nitrophenol (pNP) release]). Details: pH 7.4; 37 °C.

Protein	Proxy for plastic degradation [U/mL]
B1	245
B10	255

Same assay, conditions: pH 7.4; 42 °C

Protein	Proxy for plastic degradation [U/mL]
B1	300
B10	330

What follows are proteins tested on PET (assay: Proxy for plastic degradation [Released monomer concentration (HPLC/LC-MS) (TPA)]). Details: pH 8.

Protein	Proxy for plastic degradation [mM/mg]
B1	3.7
B5	2.6
B7	2.3
B9	1.5
B10	0.8
B13	3

The proteins below were run on pNPB (assay: Proxy for plastic degradation [p-nitrophenol (pNP) release]). Details: pH 7.4.

Protein	Proxy for plastic degradation [U/mL]
B2	3
B3	30
B4	110
B6	15
B8	15
B11	15
B12	25
